Values joined by “and” are separate entries in the source; they are usually repeats but may differ in a detail not shown here. Equal values may be shown once. One block for each molecule: values may come before it.
Key:
[1] = target: N-terminally truncated Sis10b (ΔN12) (Sulfolobus islandicus REY15A); assay: cross-linking; 10 μg protein cross-linked with 0.5 mM DSP, with or without 5 μg of a 25-bp dsRNA, 30 min at 25 or 55°C, 20 mM potassium phosphate pH 7.6, 50 mM KCl; 15% SDS-PAGE, Coomassie stain
[2] = target: Sis10b M20E/L24E/L27E/F60E (Sulfolobus islandicus REY15A); assay: as above
Sis10b wild-type = target: T1, Sis10b wild-type (Sulfolobus islandicus REY15A, UniProt F0NHH1 1-97); assay: EMSA; 55°C; EMSA: 20 mM HEPES-NaOH pH 7.0, 1 mM DTT, 100 ug/ml BSA, 6% glycerol, 30 min at 25, 37 or 55°C; gel in 0.5x TBE at the same temperature; conditions: protein: recombinant, tags: none (NdeI/XhoI pET30a, stop codon in reverse primer), chain copies: 2
T1 sequence: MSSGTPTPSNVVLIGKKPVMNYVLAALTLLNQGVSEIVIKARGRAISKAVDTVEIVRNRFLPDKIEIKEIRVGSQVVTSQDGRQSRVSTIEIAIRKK

B1: 44-bp dsRNA (dsRNA)
RNA 1: UGACUUCCGCGCGUGAGCUCGAUUCCACAUACCCUAAAUCGCUC
RNA 2: GAGCGAUUUAGGGUAUGUGGAAUCGAGCUCACGCGCGGAAGUCA
Kd (Sis10b wild-type; label: 5' 32P on top strand, blunt): ~29.4 nM

Molecule: UGACUUCCGCGCGUGAGCUCGAUUCCACAUACCCUAAAUCGCUC (ssRNA) [44-nt ssRNA (t)]
Kd (Sis10b wild-type; label: 5' 32P, single strand): ~5.3 nM

Other lines, results leading:

stoichiometry N [1]: 2 and 4
Molecule: N-terminally truncated Sis10b (ΔN12) (domain or fragment)

stoichiometry N [2]: 5 and 3
Molecule: Sis10b M20E/L24E/L27E/F60E

— publication PMC7498313, “The Sac10b homolog from Sulfolobus islandicus is an RNA chaperone”
